Test results published in patent US20250242064A1, “CXCR4-TARGETING COMPOUNDS, AND METHODS OF MAKING AND USING THE SAME” (PROVINCIAL HEALTH SERVICES AUTHORITY, priority 2022, published 2025).
Where a SMILES comes first, the peptide text is derived from it. Bridges are numbered along the chain shown (N, C = ends). Side-chain parts run from the residue outwards. [ ]: non-standard residue; d: D form. The star is where a group is joined. X1 = O=C(O)CN1CCN(CC(=O)O)CCN(CC(=O)N[C@@H](CS(=O)(=O)O)C(=O)N[C@@H](CCCCNC(=O)CCCc2ccc(I)cc2)C(=O)*)CCN(CC(=O)O)CC1; X2 = O=C(O)CN1CCOCCN(CC(=O)O)CCN(CC(=O)*)CCOCCN(CC(=O)O)CC1; 2Nal = N[C@@H](Cc1ccc2ccccc2c1)C(=O)O; Lys(iPr) = CC(C)NCCCC[C@H](N)C(=O)O; Cya = N[C@@H](CS(=O)(=O)O)C(=O)O

What was measured:
Z138 tumor-bearing mice = test: in vivo; conditions: male, NOD.Cg-Rag1tm1Mom Il2rgtm1Wjl/SzJ (NRG), mouse, iv
Method in brief: (§1)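 Male NRG mice bearing subcutaneous Z138 mantle cell lymphoma xenografts (5×10^6 cells, grown to 200-300 mm^3) injected intravenously under isoflurane with 68Ga-labelled tracers. Harvested tissues weighed and gamma-counted; uptake expressed as % ID/g.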

in vivo = test: in vivo; parameters: species or system mice; conditions: male, NOD.Cg-Rag1tm1Momll2rgtm1Wjl/SzJ (NRG), mouse, iv, total radioactivity, Mean; for tissue uptake at 1 h / tissue uptake at 3 h / tissue uptake at 24 h / tissue uptake at 72 h / tissue uptake at 120 h: Biodistribution
Method in brief: as §1

CC(C)NCCCC[C@H](NC(=O)[C@H]1CCC(=O)N[C@@H](CCCCNC(=O)[C@H](CCCCNC(=O)CCCc2ccc(I)cc2)NC(=O)[C@H](CS(=O)(=O)O)NC(=O)CN2CCN(CC(=O)O)CCN(CC(=O)O)CCN(CC(=O)O)CC2)C(=O)N[C@@H](Cc2ccc(O)cc2)C(=O)N[C@@H](CCCCNC(C)C)C(=O)N[C@H](CCCNC(=N)N)C(=O)N[C@@H](Cc2ccc3ccccc3c2)C(=O)N[C@H](C)C(=O)N1)C(N)=O [[^177Lu]Lu-BL34L11] [metal not drawn] (K(X1)Y[Lys(iPr)][dR][2Nal][dA][dE][Lys(iPr)]-NH2; lactam N-7)
Biodistribution: Adrenals (Z138 tumor-bearing mice; 1 h): 3.76 % ID/g
Biodistribution: Blood (Z138 tumor-bearing mice; 1 h): 18.59 % ID/g
Biodistribution: Bone (Z138 tumor-bearing mice; 1 h): 1.16 % ID/g
Biodistribution: Brain (Z138 tumor-bearing mice; 1 h): 0.29 % ID/g
Biodistribution: Heart (Z138 tumor-bearing mice; 1 h): 4.23 % ID/g
Biodistribution: Kidneys (Z138 tumor-bearing mice; 1 h): 5.23 % ID/g
Biodistribution: Liver (Z138 tumor-bearing mice; 1 h): 3.14 % ID/g
Biodistribution: Lungs (Z138 tumor-bearing mice; 1 h): 14.83 % ID/g
Biodistribution: Muscle (Z138 tumor-bearing mice; 1 h): 1.20 % ID/g
Biodistribution: Pancreas (Z138 tumor-bearing mice; 1 h): 1.80 % ID/g
Biodistribution: Small Intestine (Z138 tumor-bearing mice; 1 h): 1.56 % ID/g
Biodistribution: Spleen (Z138 tumor-bearing mice; 1 h): 1.56 % ID/g
Biodistribution: Stomach (Z138 tumor-bearing mice; 1 h): 0.61 % ID/g
Biodistribution: Testes (Z138 tumor-bearing mice; 1 h): 2.49 % ID/g
Biodistribution: Z138 Tumor (Z138 tumor-bearing mice; 1 h): 4.09 % ID/g
Ratio Tumor-to-Blood (Z138 tumor-bearing mice; 1 h): 0.22
Ratio Tumor-to-Bone (Z138 tumor-bearing mice; 1 h): 2.39
Ratio Tumor-to-Kidney (Z138 tumor-bearing mice; 1 h): 0.78
Ratio Tumor-to-Muscle (Z138 tumor-bearing mice; 1 h): 3.35
Ratio Tumor-to-Pancreas (Z138 tumor-bearing mice; 1 h): 2.31
Biodistribution: Adrenals (Z138 tumor-bearing mice; 3 h): 3.12 % ID/g
Biodistribution: Blood (Z138 tumor-bearing mice; 3 h): 14.23 % ID/g
Biodistribution: Bone (Z138 tumor-bearing mice; 3 h): 0.97 % ID/g
Biodistribution: Brain (Z138 tumor-bearing mice; 3 h): 0.22 % ID/g
Biodistribution: Heart (Z138 tumor-bearing mice; 3 h): 3.34 % ID/g
Biodistribution: Kidneys (Z138 tumor-bearing mice; 3 h): 3.92 % ID/g
Biodistribution: Liver (Z138 tumor-bearing mice; 3 h): 3.18 % ID/g
Biodistribution: Lungs (Z138 tumor-bearing mice; 3 h): 7.95 % ID/g
Biodistribution: Muscle (Z138 tumor-bearing mice; 3 h): 1.25 % ID/g
Biodistribution: Pancreas (Z138 tumor-bearing mice; 3 h): 1.54 % ID/g
Biodistribution: Small Intestine (Z138 tumor-bearing mice; 3 h): 1.35 % ID/g
Biodistribution: Spleen (Z138 tumor-bearing mice; 3 h): 2.03 % ID/g
Biodistribution: Stomach (Z138 tumor-bearing mice; 3 h): 0.83 % ID/g
Biodistribution: Testes (Z138 tumor-bearing mice; 3 h): 3.53 % ID/g
Biodistribution: Z138 Tumor (Z138 tumor-bearing mice; 3 h): 9.81 % ID/g
Ratio Tumor-to-Blood (Z138 tumor-bearing mice; 3 h): 0.69
Ratio Tumor-to-Bone (Z138 tumor-bearing mice; 3 h): 8.14
Ratio Tumor-to-Kidney (Z138 tumor-bearing mice; 3 h): 2.52
Ratio Tumor-to-Muscle (Z138 tumor-bearing mice; 3 h): 7.89
Ratio Tumor-to-Pancreas (Z138 tumor-bearing mice; 3 h): 6.59

CC(C)NCCCC[C@H](NC(=O)[C@H]1CCC(=O)N[C@@H](CCCCNC(=O)[C@H](CS(=O)(=O)O)NC(=O)CN2CCOCCN(CC(=O)O)CCN(CC(=O)O)CCOCCN(CC(=O)O)CC2)C(=O)N[C@@H](Cc2ccc(O)cc2)C(=O)N[C@@H](CCCCNC(C)C)C(=O)N[C@H](CCCNC(=N)N)C(=O)N[C@@H](Cc2ccc3ccccc3c2)C(=O)N[C@H](C)C(=O)N1)C(N)=O [[^177Lu]Lu-crown-BL34L20, metal not drawn] (K([Cya-X2])Y[Lys(iPr)][dR][2Nal][dA][dE][Lys(iPr)]-NH2; lactam N-7)
tissue uptake at 1 h (in vivo; Adrenals): 0.2 %ID/g
tissue uptake at 3 h (in vivo; Adrenals): 0.11 %ID/g
tissue uptake at 24 h (in vivo; Adrenals): 0.1 %ID/g
tissue uptake at 72 h (in vivo; Adrenals): 0.08 %ID/g
tissue uptake at 120 h (in vivo; Adrenals): 0.05 %ID/g
tissue uptake at 1 h (in vivo; Blood): 0.35 %ID/g
tissue uptake at 3 h (in vivo; Blood): 0.08 %ID/g
tissue uptake at 24 h (in vivo; Blood): 0.02 %ID/g
tissue uptake at 72 h (in vivo; Blood): 0.01 %ID/g
tissue uptake at 1 h (in vivo; Bone): 0.15 %ID/g
tissue uptake at 3 h (in vivo; Bone): 0.15 %ID/g
tissue uptake at 24 h (in vivo; Bone): 0.51 %ID/g
tissue uptake at 72 h (in vivo; Bone): 0.66 %ID/g
tissue uptake at 120 h (in vivo; Bone): 0.56 %ID/g
tissue uptake at 1 h (in vivo; Brain): 0.01 %ID/g
tissue uptake at 3 h (in vivo; Brain): 0.01 %ID/g
tissue uptake at 24 h (in vivo; Brain): 0.01 %ID/g
tissue uptake at 72 h (in vivo; Brain): 0.01 %ID/g
tissue uptake at 1 h (in vivo; Heart): 0.14 %ID/g
tissue uptake at 3 h (in vivo; Heart): 0.06 %ID/g
tissue uptake at 24 h (in vivo; Heart): 0.05 %ID/g
tissue uptake at 72 h (in vivo; Heart): 0.05 %ID/g
tissue uptake at 120 h (in vivo; Heart): 0.05 %ID/g
tissue uptake at 1 h (in vivo; Kidneys): 3.02 %ID/g
tissue uptake at 3 h (in vivo; Kidneys): 2.45 %ID/g
tissue uptake at 24 h (in vivo; Kidneys): 1.81 %ID/g
tissue uptake at 72 h (in vivo; Kidneys): 0.94 %ID/g
tissue uptake at 120 h (in vivo; Kidneys): 0.59 %ID/g
tissue uptake at 1 h (in vivo; Liver): 0.73 %ID/g
tissue uptake at 3 h (in vivo; Liver): 0.77 %ID/g
tissue uptake at 24 h (in vivo; Liver): 0.81 %ID/g
tissue uptake at 72 h (in vivo; Liver): 0.67 %ID/g
tissue uptake at 120 h (in vivo; Liver): 0.59 %ID/g
tissue uptake at 1 h (in vivo; Lungs): 0.53 %ID/g
tissue uptake at 3 h (in vivo; Lungs): 0.28 %ID/g
tissue uptake at 24 h (in vivo; Lungs): 0.2 %ID/g
tissue uptake at 72 h (in vivo; Lungs): 0.17 %ID/g
tissue uptake at 120 h (in vivo; Lungs): 0.15 %ID/g
tissue uptake at 1 h (in vivo; Muscle): 0.09 %ID/g
tissue uptake at 3 h (in vivo; Muscle): 0.03 %ID/g
tissue uptake at 24 h (in vivo; Muscle): 0.03 %ID/g
tissue uptake at 72 h (in vivo; Muscle): 0.02 %ID/g
tissue uptake at 120 h (in vivo; Muscle): 0.01 %ID/g
tissue uptake at 1 h (in vivo; Pancreas): 0.12 %ID/g
tissue uptake at 3 h (in vivo; Pancreas): 0.04 %ID/g
tissue uptake at 24 h (in vivo; Pancreas): 0.04 %ID/g
tissue uptake at 72 h (in vivo; Pancreas): 0.03 %ID/g
tissue uptake at 120 h (in vivo; Pancreas): 0.03 %ID/g
tissue uptake at 1 h (in vivo; Small Intestine): 0.23 %ID/g
tissue uptake at 3 h (in vivo; Small Intestine): 0.1 %ID/g
tissue uptake at 24 h (in vivo; Small Intestine): 0.17 %ID/g
tissue uptake at 72 h (in vivo; Small Intestine): 0.08 %ID/g
tissue uptake at 120 h (in vivo; Small Intestine): 0.06 %ID/g
tissue uptake at 1 h (in vivo; Spleen): 0.29 %ID/g
tissue uptake at 3 h (in vivo; Spleen): 0.23 %ID/g
tissue uptake at 24 h (in vivo; Spleen): 0.26 %ID/g
tissue uptake at 72 h (in vivo; Spleen): 0.24 %ID/g
tissue uptake at 120 h (in vivo; Spleen): 0.22 %ID/g
tissue uptake at 1 h (in vivo; Stomach): 0.08 %ID/g
tissue uptake at 3 h (in vivo; Stomach): 0.09 %ID/g
tissue uptake at 24 h (in vivo; Stomach): 0.52 %ID/g
tissue uptake at 72 h (in vivo; Stomach): 0.12 %ID/g
tissue uptake at 120 h (in vivo; Stomach): 0.14 %ID/g
tissue uptake at 1 h (in vivo; Testes): 0.11 %ID/g
tissue uptake at 3 h (in vivo; Testes): 0.04 %ID/g
tissue uptake at 24 h (in vivo; Testes): 0.04 %ID/g
tissue uptake at 72 h (in vivo; Testes): 0.03 %ID/g
tissue uptake at 120 h (in vivo; Testes): 0.03 %ID/g
tissue uptake at 1 h (in vivo; Z138 Tumor): 13.7 %ID/g
tissue uptake at 3 h (in vivo; Z138 Tumor): 11.7 %ID/g
tissue uptake at 24 h (in vivo; Z138 Tumor): 7.28 %ID/g
tissue uptake at 72 h (in vivo; Z138 Tumor): 3.47 %ID/g
tissue uptake at 120 h (in vivo; Z138 Tumor): 2.38 %ID/g
tissue to tissue ratio at 1 h (in vivo; Tumor-to-Blood ratio): 39.4
tissue to tissue ratio at 3 h (in vivo; Tumor-to-Blood ratio): 147
tissue to tissue ratio at 24 h (in vivo; Tumor-to-Blood ratio): 301
tissue to tissue ratio at 72 h (in vivo; Tumor-to-Blood ratio): 396
tissue to tissue ratio at 120 h (in vivo; Tumor-to-Blood ratio): 607
tissue to tissue ratio at 1 h (in vivo; Tumor-to-Bone ratio): 94
tissue to tissue ratio at 3 h (in vivo; Tumor-to-Bone ratio): 83.2
tissue to tissue ratio at 24 h (in vivo; Tumor-to-Bone ratio): 15.3
tissue to tissue ratio at 72 h (in vivo; Tumor-to-Bone ratio): 5.53
tissue to tissue ratio at 120 h (in vivo; Tumor-to-Bone ratio): 5.33
tissue to tissue ratio at 1 h (in vivo; Tumor-to-Kidney ratio): 4.54
tissue to tissue ratio at 3 h (in vivo; Tumor-to-Kidney ratio): 4.78
tissue to tissue ratio at 24 h (in vivo; Tumor-to-Kidney ratio): 4.01
tissue to tissue ratio at 72 h (in vivo; Tumor-to-Kidney ratio): 3.69
tissue to tissue ratio at 120 h (in vivo; Tumor-to-Kidney ratio): 4.1
tissue to tissue ratio at 1 h (in vivo; Tumor-to-Muscle ratio): 161
tissue to tissue ratio at 3 h (in vivo; Tumor-to-Muscle ratio): 430
tissue to tissue ratio at 24 h (in vivo; Tumor-to-Muscle ratio): 281
tissue to tissue ratio at 72 h (in vivo; Tumor-to-Muscle ratio): 175
tissue to tissue ratio at 120 h (in vivo; Tumor-to-Muscle ratio): 178
tissue to tissue ratio at 1 h (in vivo; Tumor-to-Pancreas ratio): 140
tissue to tissue ratio at 3 h (in vivo; Tumor-to-Pancreas ratio): 276
tissue to tissue ratio at 24 h (in vivo; Tumor-to-Pancreas ratio): 198
tissue to tissue ratio at 72 h (in vivo; Tumor-to-Pancreas ratio): 103
tissue to tissue ratio at 120 h (in vivo; Tumor-to-Pancreas ratio): 78
